37 sequences from the supplement of paper PMC7877785 can be followed below.

± gives the uncertainty stated by the source.

This data set is described as follows: self-splicing fitness, log relative to wild type (ln ratio); higher = more splicing; Tetrahymena group I intron in knt gene, E. coli kanamycin selection, DiMSum; sequences stand for … in CUCUCU…GGAGGGAAAAGUUAUCAGGCAUGCACCUGGUAGCUAGUCUUUAAACCAAUAGAUUGCAUCGGUUUAAAAGGCAAGACCGUCAAAUUGCGGGAAAGGGGUCAACAGCCGUUCAGUACCAAGUCUCAGGGGAAACUUUGAGAUGGCCUUGCAAAGGGUAUGGUAAUAAGCUGACGGACAUGGUCCUAACCACGCAGCCAAGUCCUAAGUCAACAGAUCUUCUGUUGAUAUGGAUGCAGUUCACAGACUAAAUGUCGGUCGGGGAAGAUGUAUUCUUCUCAUAAGAUAUAGUCGGACCUCUCCUUAAUGGGAGCUAGCGGAUGAAGUGAUGCAACACUGGAGCCGCUGGGAACUAAUUUGUAUGCGAAAGUAUAUUGAUUAGUUUUGGAGUACUCGUGGUCG
In short, it runs like this: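 Fitness was computed with DiMSum as the error-weighted combination of replicate fold changes, kanamycin versus none, each normalised to wild type. The library randomised all eight intron nucleotides of the P1ex region, with the intron placed in the knt kanamycin-resistance gene on pET-22b(+) in E. coli BL21(DE3). Six replicate transformations were grown overnight at 37°C or 30°C on LB agar with or without 25 μg/mL kanamycin, plus 100 μg/mL carbenicillin, 50 μM IPTG and 0.2% rhamnose. Pooled colonies were amplicon-sequenced on an Illumina HiSeq 2500.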

On to AUUAAGCAAUAUUACGGGGC, for which the “self-splicing fitness (ln)” value is -3 ± 0.21 (30 °C) and -1.98 ± 0.26 (37 °C).

For the sequence AUUAAGCAAUAUUACGGGGG, the “self-splicing fitness (ln)” value was -2.97 ± 0.27 (30 °C) and -2.33 ± 0.33 (37 °C).

With AUUAAGCAAUAUUACGGUAC, the “self-splicing fitness (ln)” value was -3.84 ± 0.47 (30 °C) and -1.6 ± 0.2 (37 °C).

For AUUAAGCAAUAUUACGUAUC, the “self-splicing fitness (ln)” value runs as follows: (30 °C) -3.93 ± 0.25; (37 °C) -2.31 ± 0.24.

As to AUUAAGCAAUAUUACGUCCA, the “self-splicing fitness (ln)” value reads like this: (30 °C) -0.883 ± 0.098; (37 °C) -0.386 ± 0.12.

As to AUUAAGCAAUAUUACGUGAC, the “self-splicing fitness (ln)” value was -3.17 ± 0.17 (30 °C) and -1.75 ± 0.18 (37 °C).

Consider AUUAAGCAAUAUUACGUGGU, for which the “self-splicing fitness (ln)” value is, setting by setting: (30 °C) -2.42 ± 0.16; (37 °C) -2.29 ± 0.19.

For AUUAAGCAAUAUUACGUUUG, the “self-splicing fitness (ln)” value is, setting by setting: (30 °C) -3.11 ± 0.15; (37 °C) -1.56 ± 0.16.

For the sequence AUUCAGCAAUAUUACGAAGG, the “self-splicing fitness (ln)” value reads like this: (30 °C) -1.02 ± 0.087; (37 °C) -0.355 ± 0.12.

AUUCAGCAAUAUUACGACAU: the “self-splicing fitness (ln)” value reads like this: (30 °C) 0.206 ± 0.012; (37 °C) 0.365 ± 0.032.

As for AUUCAGCAAUAUUACGAGCU, the “self-splicing fitness (ln)” value by setting is: (30 °C) -1.21 ± 0.14; (37 °C) -0.997 ± 0.17.

For the sequence AUUCAGCAAUAUUACGAGUC, the “self-splicing fitness (ln)” value is, setting by setting: (30 °C) -3.54 ± 0.26; (37 °C) -2.13 ± 0.43.

Turning to AUUCAGCAAUAUUACGCGGC, the “self-splicing fitness (ln)” value (30 °C) is -3.26 ± 0.22 and the “self-splicing fitness (ln)” value (37 °C) was -2.43 ± 0.22.

AUUCAGCAAUAUUACGGAAC: the “self-splicing fitness (ln)” value runs as follows: (30 °C) -2.54 ± 0.15; (37 °C) -1.01 ± 0.17.

AUUCAGCAAUAUUACGGAAU: the “self-splicing fitness (ln)” value is -2.86 ± 0.14 (30 °C) and -2.61 ± 0.23 (37 °C).

Consider AUUCAGCAAUAUUACGGCUG, for which the “self-splicing fitness (ln)” value runs as follows: (30 °C) -1.86 ± 0.2; (37 °C) -2.59 ± 0.31.

Consider AUUCAGCAAUAUUACGGGAC, for which the “self-splicing fitness (ln)” value is -3.2 ± 0.16 (30 °C) and -1.2 ± 0.12 (37 °C).

Turning to AUUCAGCAAUAUUACGGGCA, the “self-splicing fitness (ln)” value reads like this: (30 °C) -1.47 ± 0.14; (37 °C) -0.16 ± 0.14.

Regarding AUUCAGCAAUAUUACGGUAC, the “self-splicing fitness (ln)” value (30 °C) is -2.27 ± 0.11 and the “self-splicing fitness (ln)” value (37 °C) is -0.675 ± 0.094.

Consider AUUCAGCAAUAUUACGGUCA, for which the “self-splicing fitness (ln)” value runs as follows: (30 °C) -0.711 ± 0.12; (37 °C) -0.789 ± 0.11.

AUUCAGCAAUAUUACGGUGC: the “self-splicing fitness (ln)” value was -2.13 ± 0.16 (30 °C) and -0.156 ± 0.14 (37 °C).

With AUUCAGCAAUAUUACGUAGA, the “self-splicing fitness (ln)” value was -1.35 ± 0.066 (30 °C) and -0.424 ± 0.094 (37 °C).

As to AUUCAGCAAUAUUACGUAUA, the “self-splicing fitness (ln)” value by setting is: (30 °C) -1.66 ± 0.16; (37 °C) -0.805 ± 0.17.

Regarding AUUCAGCAAUAUUACGUAUG, the “self-splicing fitness (ln)” value reads like this: (30 °C) -2.34 ± 0.13; (37 °C) -0.383 ± 0.12.

Turning to AUUCAGCAAUAUUACGUCAC, the “self-splicing fitness (ln)” value (30 °C) was -3.45 ± 0.2 and the “self-splicing fitness (ln)” value (37 °C) was -2.19 ± 0.25.

Take AUUCAGCAAUAUUACGUGUA: the “self-splicing fitness (ln)” value is, setting by setting: (30 °C) -1.7 ± 0.11; (37 °C) -1.02 ± 0.092.

For the sequence AUUGAGCAAUAUUACGAACA, the “self-splicing fitness (ln)” value (30 °C) was -3.6 ± 0.32 and the “self-splicing fitness (ln)” value (37 °C) was -2.75 ± 0.25.

For AUUGAGCAAUAUUACGAAGA, the “self-splicing fitness (ln)” value reads like this: (30 °C) -2.47 ± 0.25; (37 °C) -2.23 ± 0.35.

In the case of AUUGAGCAAUAUUACGACAG, the “self-splicing fitness (ln)” value (30 °C) is -3.48 ± 0.26 and the “self-splicing fitness (ln)” value (37 °C) was -2.18 ± 0.21.

For the sequence AUUGAGCAAUAUUACGACCU, the “self-splicing fitness (ln)” value is, setting by setting: (30 °C) -3.17 ± 0.27; (37 °C) -0.0611 ± 0.17.

Regarding AUUGAGCAAUAUUACGACUA, the “self-splicing fitness (ln)” value by setting is: (30 °C) -1.2 ± 0.42; (37 °C) -1.89 ± 0.41.

Consider AUUGAGCAAUAUUACGACUU, for which the “self-splicing fitness (ln)” value runs as follows: (30 °C) -1.5 ± 0.12; (37 °C) -0.31 ± 0.13.

Regarding AUUGAGCAAUAUUACGAGCC, the “self-splicing fitness (ln)” value runs as follows: (30 °C) -3.44 ± 0.26; (37 °C) -2.48 ± 0.3.

Regarding AUUGAGCAAUAUUACGAGCU, the “self-splicing fitness (ln)” value is, setting by setting: (30 °C) -3.6 ± 0.37; (37 °C) -1.63 ± 0.37.

For AUUGAGCAAUAUUACGAGUU, the “self-splicing fitness (ln)” value is, setting by setting: (30 °C) -2.58 ± 0.14; (37 °C) -2.23 ± 0.17.

AUUGAGCAAUAUUACGAUCG: the “self-splicing fitness (ln)” value was -2.34 ± 0.34 (30 °C) and -1.04 ± 0.19 (37 °C).

Regarding AUUGAGCAAUAUUACGAUUA, the “self-splicing fitness (ln)” value is -2.36 ± 0.23 (30 °C) and -2.62 ± 0.36 (37 °C).
